{
  "source": "patent US20170137818A1",
  "about": "“APTAMER INHIBITING BIOLOGICAL ACTIVITY OF AUTOTAXIN BY BINDING WITH AUTOTAXIN, AND USE THEREOF” (RIBOMIC INC., priority 2014, published 2017)",
  "key": {"autotaxin [1]": {"target": "T1, autotaxin (Homo sapiens, UniProt Q13822)", "T1 construct": "His; purchased R&D", "experiment": "NPP2 inhibitory assay (pNP-TMP substrate)", "format": "biochemical", "settings": "mean of 2-3 measurements ± standard deviation, >1.0 = no inhibitory activity up to 1.0 μM", "description": "Whether an aptamer inhibits the enzyme activity of autotaxin can be evaluated, for example, by the following test. As a substrate of autotaxin, phosphodiester bond-containing synthetic substrate p-nitrophenyl thymidine 5′-monophosphate (pNP-TMP) (SIGMA) is used. A phosphodiester bond is cleaved by hydrolysis, and p-nitrophenol is liberated. The p-nitrophenol develops a yellow color, and the color is detected. For the assay, a 96-well plate (96-Well EIAsurasshuRIA Polystyrene Plates, Costar) was used, and the amount of the reaction mixture was 200 μL. Nucleic acid was prepared in solution A (see below-mentioned Example 1) (100 μL), pNP-TMP (20 μL) adjusted to 10 mM in the reaction mixture A was added, and the mixture was stirred well and heated at 37° C. for 5 min. On the other hand, 6 ng of autotaxin (Recombinant Human, manufactured by R&D) diluted with solution A was prepared (80 μL), and heated at 37° C. for 5 min. After heating, they were mixed to start an enzyme reaction. The final autotaxin concentration in the reaction solution was 0.3 nM, and the final substrate concentration was 1 mM. A plate containing the reaction mixture was heated at 37° C. for 24 hr, placed in a microplate reader SpectraMax190 (manufactured by Molecular Devices) and the absorbance was determined at wavelength 405 nm. The absorbance when nucleic acid is not added as 100% (A0), an enzyme activity rate was determined from the absorbance (A) of each test substance and according to the following formula.\nEnzyme activity rate=(A/A0)×100\n(§1) The concentration (IC50) of an inhibitor necessary for inhibiting the enzyme activity by 50% was determined.\nWhether these nucleic acids show an autotaxin inhibitory activity was evaluated by the following method. As a substrate of autotaxin, phosphodiester bond-containing synthetic substrate p-nitrophenyl thymidine 5′-monophosphate (pNP-TMP) (SIGMA) was selected (hereinafter to be referred to as NPP2 inhibitory assay). A phosphodiester bond is cleaved by hydrolysis, and p-nitrophenol is liberated. The p-nitrophenol develops a yellow color, and the color is detected. For the assay, a 96-well plate (96-Well EIA/RIA Polystyrene Plates, Costar) was used, and the amount of the reaction mixture was 200 μL. As the reaction mixture, solution A was used. Nucleic acids were prepared in solution A (100 μL), pNP-TMP (20 μL) adjusted to 10 mM in the reaction mixture A was added, and the mixture was stirred well and heated at 37° C. for 5 min. On the other hand, 6 ng of autotaxin diluted with solution A was prepared (80 μL), and heated at 37° C. for 5 min. After heating, they were mixed to start enzyme reaction. The final autotaxin concentration in the reaction solution was 0.3 nM, and the final substrate concentration was 1 mM. A plate containing the reaction mixture was heated at 37° C. for 24 hr, placed in a microplate reader SpectraMax190 (manufactured by Molecular Devices) and the absorbance was determined at wavelength 405 nm. The absorbance when nucleic acids are not added as 100% (A0), an […] was determined from the absorbance (A) of each test substance and according to the following formula.\nas §1"}, "autotaxin [2]": {"target": "T1, autotaxin", "experiment": "Biacore surface plasmon resonance, nucleic acid immobilized on SA chip, autotaxin as analyte", "format": "binding", "settings": "nucleic acid immobilized about 1500 RU, autotaxin 0.02 μM as analyte; maximum RU relative to SEQ ID NO: 10", "description": "Biacore T100 manufactured by GE Healthcare is used for the measurement of binding strength. In one measurement method, an aptamer is first immobilized on a sensorchip. The immobilization amount is set to about 1500 RU. An autotaxin solution as an analyte prepared to 0.020 μM is injected by 20 μL, and binding of the autotaxin to the aptamer is detected.\nAll nucleic acids shown in SEQ ID NOs: 4-10 were produced by chemical synthesis. The binding activity of these nucleic acids to autotaxin was evaluated by the surface plasmon resonance method. For the measurement, Biacore T100 manufactured by GE Healthcare was used. The SA chips with streptavidin immobilized thereon were used as the sensor chips. Binding thereto was about 1500 RU of 16 nucleotide Poly dT of which biotin was bound to the 5′-terminus. The nucleic acids used as a ligand were added with Poly A (16 nucleotides) to the 3′-terminus, and were immobilized on SA chips by T-A annealing. The nucleic acids (20 μL) were injected at a flow rate of 20 μL/min to immobilize about 1500 RU of the nucleic acids. An autotaxin for analyte was prepared at 0.02 μM, and 20 μL thereof was injected. As a running buffer, solution A (mixed solution of 145 mM sodium chloride, 5.4 mM potassium chloride, 1.8 mM calcium chloride, 0.8 mM magnesium chloride, 20 mM Tris (pH 7.6), 0.05% Tween20) was used."}, "autotaxin [3]": {"target": "T1, autotaxin", "experiment": "Biacore surface plasmon resonance, autotaxin immobilized on CM4 chip, nucleic acid as analyte", "format": "binding", "settings": "maximum RU relative to SEQ ID NO: 22"}, "[4]": {"settings": "Table 1, autotaxin 0.3 nM, pNP-TMP 1 mM, 37° C. 24 hr"}},
  "data": [
    {"molecule": "9 (nucleic acid, aptamer; DNA, backbone and methylation of C not given here) GTGGTCTAGCTGTACTCAGGCCGGAACCGGTGAAATTGGTCGCCTAATAAGCGAAATCCACAGTCAACGAGCTA", "values": [
      {"measurement": "IC50", "setting": "autotaxin [1]; [4]", "value": "36 ± 4", "unit": "nM"},
      {"measurement": "Binding activity by Biacore", "setting": "autotaxin [2]", "value": "+ (not less than that)"}
    ]},
    {"molecule": "10 (nucleic acid, aptamer; DNA, backbone and methylation of C not given here) GTGGTCTAGCTGTACTCGCCGGAACCGTACTATGGTCGCGTTGTATGACGCTTGTATCCACAGTCAACGAGCTA", "values": [
      {"measurement": "IC50", "setting": "autotaxin [1]; [4]", "value": "21 ± 6", "unit": "nM"},
      {"measurement": "Binding activity by Biacore", "setting": "autotaxin [2]", "value": "+ (not less than that)"}
    ]},
    {"molecule": "22 (nucleic acid, aptamer; DNA, backbone and methylation of C not given here) ACACTCACAGGCGCTGGCCGGAACCGTGCATATGGTCGCCAGCACATCGTGCATGGCCGCTAGT", "values": [
      {"measurement": "IC50", "setting": "autotaxin [1]; Table 3", "value": "30 ± 11", "unit": "nM"},
      {"measurement": "Binding activity by Biacore", "setting": "autotaxin [3]", "value": "+ (not less than that)"}
    ]},
    {"molecule": "24 (nucleic acid, aptamer; DNA, backbone and methylation of C not given here) ACACTCACAGGCGCTGGCGAGTCGGAACCGAGCCGATTGGTCACTCGCGTGCATGGCCGCTAGT", "values": [
      {"measurement": "IC50", "setting": "autotaxin [1]; Table 3", "value": "32 ± 4.2", "unit": "nM"},
      {"measurement": "Binding activity by Biacore", "setting": "autotaxin [3]", "value": "+ (not less than that)"}
    ]},
    {"molecule": "23 (nucleic acid, aptamer; DNA, backbone and methylation of C not given here) ACACTCACAGGCGCTGGCACGGACCGGAACCGGGACGCTCGGTCGACCGTGCATGGCCGCTAGT", "values": [
      {"measurement": "IC50", "setting": "autotaxin [1]; Table 3", "value": 75, "unit": "nM"},
      {"measurement": "Binding activity by Biacore", "setting": "autotaxin [3]", "value": "+ (not less than that)"}
    ]},
    {"molecule": "8 (nucleic acid, aptamer; DNA, backbone and methylation of C not given here) GTGGTCTAGCTGTACTCCGAAAGCCGGAACCGTGCCAATGGTCGCTACTTCAGCTCCCCACAGTCAACGAGCTA", "values": [
      {"measurement": "IC50", "setting": "autotaxin [1]; [4]", "value": "10 ± 2", "unit": "nM"},
      {"measurement": "Binding activity by Biacore", "setting": "autotaxin [2]", "value": "+ (not less than that)"}
    ]},
    {"molecule": "20 (nucleic acid, aptamer; DNA, backbone and methylation of C not given here) ACACTCACAGGCGCTGGGGTACGCTCGGAACCGAGGCAATTGGTCAGCGTGCATGGCCGCTAGT", "values": [
      {"measurement": "IC50", "setting": "autotaxin [1]; Table 3", "value": "37 ± 2", "unit": "nM"},
      {"measurement": "Binding activity by Biacore", "setting": "autotaxin [3]", "value": "+ (not less than that)"}
    ]},
    {"molecule": "6 (nucleic acid, DNA, backbone and methylation of C not given here) GTGGTCTAGCTGTACTCGGAACCGTACTCAACGGTCAGTACCTTTGCGCCGCAGCAAGCCACAGTCAACGAGCTA", "values": [
      {"measurement": "IC50", "setting": "autotaxin [1]; [4]", "value": 20, "unit": "nM"},
      {"measurement": "Binding activity by Biacore", "setting": "autotaxin [2]", "value": "+ (not less than that)"}
    ]},
    {"molecule": "4 (nucleic acid, aptamer; DNA, backbone and methylation of C not given here) GTGGTCTAGCTGTACTCTCCGGAACCAGAGCAATTTGGTCGAGCGCTATCGGATGGTCCACAGTCAACGAGCTA", "values": [
      {"measurement": "IC50", "setting": "autotaxin [1]; [4]", "value": "16 ± 6", "unit": "nM"},
      {"measurement": "Binding activity by Biacore", "setting": "autotaxin [2]", "value": "+ (not less than that)"}
    ]},
    {"molecule": "21 (nucleic acid, aptamer; DNA, backbone and methylation of C not given here) ACACTCACAGGCGCTGGCCACCACTGCACCGGAACCGCGAATGTGGTCGTGCATGGCCGCTAGT", "values": [
      {"measurement": "IC50", "setting": "autotaxin [1]; Table 3", "value": "28 ± 11", "unit": "nM"},
      {"measurement": "Binding activity by Biacore", "setting": "autotaxin [3]", "value": "+ (not less than that)"}
    ]},
    {"molecule": "25 (nucleic acid, aptamer; DNA, backbone and methylation of C not given here) ACACTCACAGGCGCTGGCGACGTCGGAACCGTGTACCATGGTCACGTCGTGCATGGCCGCTAGT", "values": [
      {"measurement": "IC50", "setting": "autotaxin [1]; Table 3", "value": "31 ± 5.7", "unit": "nM"},
      {"measurement": "Binding activity by Biacore", "setting": "autotaxin [3]", "value": "+ (not less than that)"}
    ]},
    {"molecule": "5 (nucleic acid, aptamer; DNA, backbone and methylation of C not given here) GTGGTCTAGCTGTACTCATGGACGGAACCAGAATACTTTTGGTCTCCATTGAGTACGCCACAGTCAACGAGCTA", "values": [
      {"measurement": "IC50", "setting": "autotaxin [1]; [4]", "value": "11 ± 5", "unit": "nM"},
      {"measurement": "Binding activity by Biacore", "setting": "autotaxin [2]", "value": "+ (not less than that)"}
    ]}
  ]
}
